Source: patent publication US20230059344A1

Target: h4-1-BB on a genetically engineered Jurkat T cell line (Promega 4-1BB Bioassay) (human) (UniProt Q07011)
Experiment: cell-based or functional assay
Details: scale: relative luciferase

Sequence of h4-1-BB on a genetically engineered Jurkat T cell line (Promega 4-1BB Bioassay) (human) (Q07011 24-255, change not shown): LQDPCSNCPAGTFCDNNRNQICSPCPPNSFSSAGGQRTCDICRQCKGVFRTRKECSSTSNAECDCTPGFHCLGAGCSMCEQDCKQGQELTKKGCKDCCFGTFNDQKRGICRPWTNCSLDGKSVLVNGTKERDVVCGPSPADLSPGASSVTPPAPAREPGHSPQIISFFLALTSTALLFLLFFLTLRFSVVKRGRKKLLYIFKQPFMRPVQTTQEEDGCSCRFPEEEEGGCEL

In the case of “His-tagged h4-1BBL cross-linked with an Fc (from UniProt P41273 71-254) (ligand)”, the luciferase expression by Jurkat-h4-1BB cells is reported as 1.
